Assay results taken from patent publication US11278600B2, “Human alpha-galactosidase variants” (Codexis, Inc., priority 2014, dated 2022).

Tests used:
Format in all cases: biochemical
[1] = HTP-analysis of supernatants pretreated with acid (MUGal hydrolysis); details: challenge at pH 4.2; activity of the variant/activity of Rd2BB (SEQ ID NO: 10); yeast culture supernatant
Procedure, shortened: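 MUGal hydrolysis was tracked by fluorescence (Ex 355 nm, Em 448 nm) after a 30-180 min reaction at 37° C. in pH 4.8 McIlvaine/citrate buffer, stopped with 1 M sodium carbonate. Beforehand, yeast (INVSc1) culture supernatants carrying GLA variants were held 1-3 h at 37° C. in acidic McIlvaine buffer, pH 3.3-4.3.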

[2] = HTP-analysis of supernatants pretreated with base (MUGal hydrolysis); details: challenge at pH 7.6; activity of the variant/activity of Rd2BB (SEQ ID NO: 10); yeast culture supernatant
Procedure, shortened: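 Supernatants from INVSc1 yeast expressing GLA variants (SD-Ura, 66-84 h, 30° C) were mixed with McIlvaine buffer pH 7.0-8.2 or 200 mM sodium bicarbonate pH 9.1-9.7 and held 1-18 h at 37° C. Residual activity was then measured on MUGal at pH 4.8/4.3, 37° C, 30-180 min, by fluorescence (Ex 355/Em 448 nm).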

[3] = HTP-analysis of yeast culture supernatants, no challenge (MUGal hydrolysis); details: activity of the variant/activity of Rd2BB (SEQ ID NO: 10), yeast culture supernatant
Procedure, shortened: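 GLA variants expressed in yeast INVSc1, secreted into SD-Ura broth over 66-84 h at 30° C; clarified supernatants tested without challenge. Supernatant mixed with McIlvaine buffer pH 4.8 and 2 mM MUGal (citrate/KCl, pH 4.6), 37° C for 30-180 min, carbonate-quenched, fluorescence Ex 355/Em 448 nm.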

[4] = HTP-analysis of supernatants pretreated with bovine serum (MUGal hydrolysis); details: activity of the variant/activity of Rd2BB (SEQ ID NO: 10), yeast culture supernatant
Experimental: Yeast (INVSc1) cells transformed with vectors expressing GLA and GLA variants using the lithium acetate method were selected on SD-Ura agar plates. After 72 h incubation at 30° C. colonies were placed into the wells of Axygen® 1.1 ml 96-well deep well plates filled with 200 μl/well SD-Ura broth (2 g/L SD-Ura, 6.8 g/L yeast nitrogen base without amino acids [Sigma Aldrich]), 3.06 g/L sodium dihydrogen phosphate, 0.804 g/L disodium hydrogen phosphate, pH 6.0 supplemented with 6% glucose. The cells were allowed to grow for 20-24 hours in a Kuhner shaker (250 rpm, 30° C., and 85% relative humidity). Overnight culture samples (20 μL) were transferred into Corning Costar® 96-well deep plates filled with 380 µL of SD-ura broth supplemented with 2% glucose. The plates were incubated for 66-84 h in a Kuhner shaker (250 rpm, 30° C., and 85% relative humidity). The cells were then pelleted (4000 rpm×20 min), and the supernatants isolated and stored at 4° C. prior to analysis.
GLA variants were challenged with bovine serum to simulate the conditions the variants encounter following infusion into a patient. First, 20 μL of yeast culture supernatant and 80 μL, of bovine serum were added to the wells of a 96-well round bottom plate. The plates were sealed and incubated at 37° C. for 1 h. For the assay, 50 μL of serum-challenged sample was mixed with 25 μL, of 1 M citrate buffer pH 4.3 and 25 μL, of 4 mM MUGal in McIlvaine buffer pH 4.8. The reactions were mixed briefly and incubated at 37° C. for 180 minutes, prior to quenching with 100 μL, of 1 M sodium carbonate. Hydrolysis was analyzed using a SpectraMax® M2 microplate reader monitoring fluorescence (Ex. 355 nm, Em. 448 nm).

B1: 237 (protein)
chain: LDNGLARTPTMGWLHWERFMCNLDCQEEPDSCISEKLFMEMAELMVSEGWKDAGYEYLCIDDCWMAPQRDSEGRLQADPQRFPHGIRQLANYVHSKGLKLGIYADVGNKTCAGFPGSFGYYDIDAQTFADWGVDLLKFDGCYCDSLENLADGYKHMSLALNRTGRSIVYSCEWPLYMWPFQKPNYTEIRQYCNHWRNFADIDDSWASIKSILDWTSRNQERIVDVAGPGGWNDPDMLVIGNFGLSWNQQVTQMALWAIMAAPLFMSNDLRHISPQAKALLQDKDVIAINQDPLGKQGYQLRKGDNFEVWERPLSGDAWAVAMINRQEIGGPRSYTIPVASLGKGVACNPGCFITQLLPVKRKLGFYDWDSRLRSHINPTGTVLLQLENTMQMSLKDLL
modifications: Synthetic Polypeptide sequence of Variant No. 237 of mature Human GLA
**Q.** With B1 as the molecule, how does the “Relative Activity of GLA Variants After Challenge at pH 4.2” value (“Relative Activity … at pH 4.2” below) [1] read?
**A.** +++ (+++ = >2.5 relative activity over Rd2BB (SEQ ID NO: 10))

**Q.** And the “Relative Activity of GLA Variants After Challenge at pH 7.6” value (“Relative Activity … at pH 7.6” for short) [2]?
**A.** +++ (+++ = >2.5 relative activity over Rd2BB (SEQ ID NO: 10))

**Q.** What about the “Relative Activity of GLA Variants After No Challenge (NC)” value [3] of the same molecule?
**A.** +++ (+++ = >2.5 relative activity over Rd2BB (SEQ ID NO: 10))

**Q.** What about the “Relative Activity of GLA Variants After Challenge with Serum” value (from here on “Relative Activity … with Serum”) [4] of the same molecule?
**A.** +++ (+++ = >2.5 relative activity over Rd2BB (SEQ ID NO: 10))

B2: 240 (protein)
chain: LDNGLARTPTMGWLHWERFMCNLDCQEEPDSCISEKLFMEMAELMVSEGWKDAGYEYLCIDDCWMAPQRDSEGRLQADPQRFPHGIRQLANYVHSKGLKLGIYADVGNKTCAGFPGSFGYYDIDAQTFADWGVDLLKFDGCYCDSLENLADGYKHMSLALNRTGRSIVYSCEWPLYMWPFQKPNYTEIRQYCNHWRNFADIDDSWASIKSILDWTSFNQERIVDVAGPGGWNDPDMLVIGNFGLSWNQQVTQMALWAIMAAPLFMSNDIRHISPQAKALLQDKDVIAINQDPLGKQGYQLRQGDNFEVWERPLSGLAWAVAMINRQEIGGPRSYTIAVASLGKGVACNLACFITQLLPVKRKLGFYEWTSRLKSHINPTGTVLLQLENTMQMSLKDLL
modifications: Synthetic Polypeptide sequence of Variant No. 240 of mature Human GLA
**Q.** What does the source list for B2?
**A.** Relative Activity of GLA Variants After Challenge at pH 4.2 [1]: + (+ = 0.5 to 1.5 relative activity over Rd2BB (SEQ ID NO: 10)); Relative Activity of GLA Variants After Challenge at pH 7.6 [2]: + (+ = 0.5 to 1.5 relative activity over Rd2BB (SEQ ID NO: 10)); Relative Activity of GLA Variants After No Challenge (NC) [3]: − (− = <0.5 relative activity over Rd2BB (SEQ ID NO: 10)); Relative Activity of GLA Variants After Challenge with Serum [4]: + (+ = 0.5 to 1.5 relative activity over Rd2BB (SEQ ID NO: 10))

B3: 238 (protein)
chain: LDNGLARTPTMGWLHWERFMCNLDCQEEPDSCISEKLFMEMAELMVSEGWKDAGYEYLCIDDCWMAPQRDSEGRLQADPQRFPHGIRQLANYVHSKGLKLGIYADVGNKTCAGFPGSFGYYDIDAQTFADWGVDLLKFDGCYCDSLENLADGYKHMSLALNRTGRSIVYSCEWPLYMWPFQKPNYTEIRQYCNHWRNFADIDDSWASVKSILDWTSFNQERIVDVAGPGGWNDPDMLVIGNFGLSWNQQVTQMALWAIMAAPLFMSNDLRHISPQAKALLQDKDVIAINQDPLGKQGYQLRQGDNFEVWERPLSGLAWAVAVINRQEIGGPRSYTIAVASLGGGVACNPACFITQLLPVKRKLGLYEWTSRLKSHVNPTGTVLLQLENTMQMSLKDLL
modifications: Synthetic Polypeptide sequence of Variant No. 238 of mature Human GLA
**Q.** With B3 as the molecule, how does the “Relative Activity … at pH 4.2” value [1] read?
**A.** +++ (+++ = >2.5 relative activity over Rd2BB (SEQ ID NO: 10))

**Q.** And the “Relative Activity … at pH 7.6” value [2]?
**A.** +++ (+++ = >2.5 relative activity over Rd2BB (SEQ ID NO: 10))

**Q.** And the “Relative Activity of GLA Variants After No Challenge (NC)” value [3]?
**A.** ++ (++ = 1.5 to 2.5 relative activity over Rd2BB (SEQ ID NO: 10))

**Q.** What about the “Relative Activity … with Serum” value [4] of the same molecule?
**A.** ++ (++ = 1.5 to 2.5 relative activity over Rd2BB (SEQ ID NO: 10))

B4: 241 (protein)
chain: LDNGLARTPTMGWLHWERFMCNLDCQEEPDSCISEKLFMEMAELMVSEGWKDAGYEYLCIDDCWMAPQRDSEGRLQADPQRFPHGIRQLANYVHSKGLKLGIYADVGNKTCAGFPGSFGYYDIDAQTFADWGVDLLKFDGCYCDSLENLADGYKHMSLALNRTGRSIVYSCEWPLYMWPFQKPNYTEIRQYCNHWRNFADIDDSWASIKSILDWTSFNQERIVDVAGPGGWNDPDMLVIGNFGLSWDQQVTQMALWAIMAAPLFMSNDLRHISPQAKALLQDKDVIAINQDPLGKQGYQLRQGDNFEVWERPLSGLAWAVAVINRQEIGGPRSYTIAVASLGDGVACNPACFITQLLPVKRKLGFYEWTSRLKSHVNPTGTVLLQLENTMQMSLKDLL
modifications: Synthetic Polypeptide sequence of Variant No. 241 of mature Human GLA
**Q.** For B4, which “Relative Activity … at pH 4.2” value [1] is on record?
**A.** +++ (+++ = >2.5 relative activity over Rd2BB (SEQ ID NO: 10))

**Q.** What about the “Relative Activity … at pH 7.6” value [2] of the same molecule?
**A.** +++ (+++ = >2.5 relative activity over Rd2BB (SEQ ID NO: 10))

**Q.** What about the “Relative Activity of GLA Variants After No Challenge (NC)” value [3] of the same molecule?
**A.** ++ (++ = 1.5 to 2.5 relative activity over Rd2BB (SEQ ID NO: 10))

**Q.** What about the “Relative Activity … with Serum” value [4] of the same molecule?
**A.** ++ (++ = 1.5 to 2.5 relative activity over Rd2BB (SEQ ID NO: 10))

B5: 239 (protein)
chain: LDNGLARTPTMGWLHWERFMCNLDCQEEPDSCISEKLFMEMAELMVSEGWKDAGYEYLCIDDCWMAPQRDSEGRLQADPQRFPHGIRQLANYVHSKGLKLGIYADVGNKTCAGFPGSFGYYDIDAQTFADWGVDLLKFDGCYCDSLENLADGYKHMSLALNRTGRSIVYSCEWPLYMWPFQKPNYTEIRQYCNHWRNFADIDDSWASVKSILDWTSFNQEKIVDVAGPGGWNDPDMLVIGNFGLSWDQQVTQMALWAIMAAPLFMSNDLRHISPQAKALLQDKDVIAINQDPLGKQGYQLRQGDNFEVWERPLSGLAWAVAIINRQEIGGPRSYTIAVASLGDGVACNPACFITQLLPVKRKLGLYEWTSRLKSHVNPTGTVLLQLENTMQMSLKDLL
modifications: Synthetic Polypeptide sequence of Variant No. 239 of mature Human GLA
**Q.** Which results are given for B5?
**A.** Relative Activity of GLA Variants After Challenge at pH 4.2 [1]: +++ (+++ = >2.5 relative activity over Rd2BB (SEQ ID NO: 10)); Relative Activity of GLA Variants After Challenge at pH 7.6 [2]: +++ (+++ = >2.5 relative activity over Rd2BB (SEQ ID NO: 10)); Relative Activity of GLA Variants After No Challenge (NC) [3]: +++ (+++ = >2.5 relative activity over Rd2BB (SEQ ID NO: 10)); Relative Activity of GLA Variants After Challenge with Serum [4]: ++ (++ = 1.5 to 2.5 relative activity over Rd2BB (SEQ ID NO: 10))

B6: 242 (protein)
chain: LDNGLARTPTMGWLHWERFMCNLDCQEEPDSCISEKLFMEMAELMVSEGWKDAGYEYLCIDDCWMAPQRDSEGRLQADPQRFPHGIRQLANYVHSKGLKLGIYADVGNKTCAGFPGSFGYYDIDAQTFADWGVDLLKFDGCYCDSLENLADGYKHMSLALNRTGRSIVYSCEWPLYMWPFQKPNYTEIRQYCNHWRNFADIDDSWASIKSILDWTSFNQERIVDVAGPGGWNDPDMLVIGNFGLSWDQQVTQMALWAIMAAPLFMSNDLRHISPQAKALLQDKDVIAINQDPLGKQGYQLRQGDNFEVWERPLSGLAWAVAVINRQEIGGPRSYTIAVASLGGGVACNPACFITQLLPVKRKLGLYEWTSRLKSHINPTGTVLLQLENTMQMSLKDLL
modifications: Synthetic Polypeptide sequence of Variant No. 242 of mature Human GLA
**Q.** What does the source list for B6?
**A.** Relative Activity of GLA Variants After Challenge at pH 4.2 [1]: +++ (+++ = >2.5 relative activity over Rd2BB (SEQ ID NO: 10)); Relative Activity of GLA Variants After Challenge at pH 7.6 [2]: +++ (+++ = >2.5 relative activity over Rd2BB (SEQ ID NO: 10)); Relative Activity of GLA Variants After No Challenge (NC) [3]: +++ (+++ = >2.5 relative activity over Rd2BB (SEQ ID NO: 10)); Relative Activity of GLA Variants After Challenge with Serum [4]: +++ (+++ = >2.5 relative activity over Rd2BB (SEQ ID NO: 10))
